Holding throughout (settings): both partners purified
The target of one assay is T1, RpfG-MBP (Lysobacter enzymogenes).
T1 chain: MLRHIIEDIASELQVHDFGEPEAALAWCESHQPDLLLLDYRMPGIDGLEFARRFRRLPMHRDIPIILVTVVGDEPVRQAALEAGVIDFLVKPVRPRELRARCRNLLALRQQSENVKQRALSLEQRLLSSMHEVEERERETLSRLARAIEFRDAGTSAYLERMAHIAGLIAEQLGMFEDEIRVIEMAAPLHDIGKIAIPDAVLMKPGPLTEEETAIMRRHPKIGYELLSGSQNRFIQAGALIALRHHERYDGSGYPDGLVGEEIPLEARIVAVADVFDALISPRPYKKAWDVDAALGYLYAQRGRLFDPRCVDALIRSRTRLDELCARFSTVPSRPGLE
Kind of assay: SPR; RpfG-MBP on the sensor, HtsH cytoplasmic fragments bound to it; conditions not given.

For the next assay, the target named is HtsH3C-Myc-His (Lysobacter enzymogenes). The assay can be described thus: SPR; HtsH cytoplasmic fragments against each other (Supplementary Fig. 5); who was immobilised and conditions not told. A general note: In SPR one partner is held on a chip, and binding of the other changes the refractive index at the surface.
The target of the next assay is HtsH2C-HA-His (Lysobacter enzymogenes). The description is as above.

B1: HtsH1C-Flag-His (domain or fragment)
chain: not shown
modifications: Phosphorylated as purified (CIAP-sensitive). Limits from the expression primers: (M)AKTRFL... to ...LFEREA, just before the His-kinase domain to the C-terminus. The start codon Met and Flag/His tags …
With B1, the Kd (commonly a measure of binding affinity in units of concentration) in the assay with RpfG-MBP is 66.8 nM; in the assay with HtsH3C-Myc-His, 160 nM; with HtsH2C-HA-His, 96.2 nM.

B2: HtsH2C-HA-His (domain or fragment)
chain: not shown
modifications: Phosphorylated as purified (CIAP-sensitive). Primers give (M)AKTRFL... to ...DAADAP (C-terminus). The candidate lists no features, so the start is estimated from the paralogues' fragment lengths and …
Consider B2, for which the Kd in the assay with RpfG-MBP was found to be 300 nM; with HtsH3C-Myc-His, 178 nM.

B3: HtsH3C-Myc-His (domain or fragment)
chain: not shown
modifications: Phosphorylated as purified (CIAP-sensitive). Primers give (M)AKTRFL... to ...ARRGEG (C-terminus). Positions are inferred from the candidate's His-kinase domain start. Assignment of this entry to …
B3 gave a Kd in the assay with RpfG-MBP of 168 nM.

The values above are taken from publication PMC8463545, “The predatory soil bacterium Lysobacter reprograms quorum sensing system to regulate antifungal antibiotic production in a cyclic-di-GMP-independent manner” (Communications Biology, 2021).
